Assay results taken from patent publication US20200216522A1 (published 2020).

Target: full-length human Tau (Tau441; 2N4R), recombinant (UniProt P10636 1-758)
Assay: SPR (Biacore); 25°C

Sequence of full-length human Tau (Tau441; 2N4R), recombinant (P10636 other isoform, or with tags, fused parts or gaps): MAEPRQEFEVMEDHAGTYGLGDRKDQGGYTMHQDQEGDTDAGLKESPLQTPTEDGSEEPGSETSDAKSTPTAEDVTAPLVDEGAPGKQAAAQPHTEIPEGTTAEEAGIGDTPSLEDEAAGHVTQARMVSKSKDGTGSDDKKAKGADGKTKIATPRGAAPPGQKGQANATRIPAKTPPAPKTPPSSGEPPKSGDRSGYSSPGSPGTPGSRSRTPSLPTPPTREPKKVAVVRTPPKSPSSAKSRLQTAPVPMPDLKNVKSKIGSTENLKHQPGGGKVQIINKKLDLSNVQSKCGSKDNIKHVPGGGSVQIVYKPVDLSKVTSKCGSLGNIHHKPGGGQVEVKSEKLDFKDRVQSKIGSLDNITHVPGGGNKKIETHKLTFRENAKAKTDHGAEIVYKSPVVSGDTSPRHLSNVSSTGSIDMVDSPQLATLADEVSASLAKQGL

| Binder | Kd [nM] |
| --- | --- |
| chimeric IgG clone 1G7 (antibody, V domains shown) VH: EVQLQQSGAEVVRPGASVKLSCTTSGFNIKDSLMHWLKQRPEQGLEWIGWIDPEDGETKYAPKFQDKATITADTSSNTAYLQLSSLTSGDTAIYYCARRDWEGPWGQGTLVTVSA VL: not shown | 0.0946 |
| chimeric IgG clone 1A5 (antibody, V domains shown) VH: EVQLQQSGAELVRPGASVKLSCTASGFNIKDSLIHWVKQRPEQGLEWIGWIDPEDGETKYAPKFQDKATKTADTSSNTAYLQLSSLTSEDTAIYYCASGEWDYWGQGTSVTVSS VL: not shown | 0.155 |
